The supplement of paper PMC10724198
± gives the standard deviation of the averaged measurements.

Experiments:
Saccharomyces cerevisiae [1] = test: protein stability index of tFT-peptide fusion (C-terminal peptide) (PSI (0-1 scale)); higher = more stable (slower turnover)
Experimental: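 MPS profiling in S. cerevisiae of the tFT-X12 degron library: putative degron peptides plus stable controls, 12 aa, fused to the C-terminus of a sfGFP-mCherry timer. Cells are FACS-sorted into 8 mCherry/sfGFP bins and deep-sequenced. PSI runs from 0 (unstable) to 1 (stable). Backgrounds are wild type, das1Δ and doa10Δ at 30 °C, and wild type, das1Δ, cdc34-1 and cdc53-1 at 37 °C; 2-3 technical replicates each.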

Saccharomyces cerevisiae [2] = test: as above; settings: genetic background: wild type; temperature: 30 C
[3] = genetic background: cdc34-1, temperature: 37 C
[4] = genetic background: cdc53-1, temperature: 37 C
[5] = genetic background: das1 deletion, temperature: 30 C
[6] = genetic background: das1 deletion, temperature: 37 C
[7] = genetic background: doa10 deletion, temperature: 30 C
[8] = genetic background: wild type, temperature: 30 C
[9] = genetic background: wild type, temperature: 37 C
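Note: PSI is a weighted mean of sequencing reads over stability bins, variants kept only with over 10 reads, mCherry proximal and sfGFP distal, peptide attached via GGGS linker.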

| Sequence | protein stability index (Saccharomyces cerevisiae [1]; [3]) | protein stability index (Saccharomyces cerevisiae [1]; [4]) | protein stability index (Saccharomyces cerevisiae [1]; [5]) | protein stability index (Saccharomyces cerevisiae [1]; [6]) | protein stability index (Saccharomyces cerevisiae [1]; [7]) | protein stability index (Saccharomyces cerevisiae [1]; [8]) | protein stability index (Saccharomyces cerevisiae [1]; [9]) | protein stability index (Saccharomyces cerevisiae [2]) |
| --- | --- | --- | --- | --- | --- | --- | --- | --- |
| GVSRRWFSLRCI | 0.627 ± 0.039 | 0.717 ± 0.015 | 0.612 ± 0.029 | 0.75 ± 0.013 | 0.125 ± 0.009 | 0.15 ± 0.011 | 0.2424 ± 0.0022 | 0.214 ± 0.0074 |
| GVVCCVVVGRMG | 0.619 ± 0.024 | 0.659 ± 0.024 | 0.474 ± 0.024 | 0.665 ± 0.018 | 0.445 ± 0.032 | 0.451 ± 0.013 | 0.63558 ± 6.8e-05 | 0.503 ± 0.053 |
| GVVRKLCHWVVA | 0.476 ± 0.0049 | 0.516 ± 0.031 | 0.362 ± 0.027 | 0.525 ± 0.0015 | 0.286 ± 0.0046 | 0.322 ± 0.016 | 0.469 ± 0.013 | 0.426 ± 0.04 |
| GWVQFVKAAVLF | 0.655 ± 0.063 | 0.7587 ± 0.0019 | 0.59 ± 0.031 | 0.73964 ± 3.5e-06 | 0.197 ± 0.0058 | 0.211 ± 0.043 | 0.4443 ± 0.0032 | 0.36 ± 0.053 |
| GYACSIFYLRCV | 0.535 ± 0.037 | 0.5771 ± 6.4e-05 | 0.496 ± 0.03 | 0.6266 ± 0.00063 | 0.218 ± 0.0038 | 0.23 ± 0.021 | 0.444 ± 0.016 | 0.377 ± 0.014 |
| GYRFSILSILRV | 0.581 ± 0.031 | 0.611 ± 0.014 | 0.513 ± 0.024 | 0.627 ± 0.012 | 0.488 ± 0.017 | 0.47 ± 0.023 | 0.612 ± 0.016 | 0.482 ± 0.025 |
| HANPGTFGPCTR | 0.654 ± 0.019 | 0.7204 ± 0.006 | 0.645 ± 0.012 | 0.72 ± 0.0081 | 0.658 ± 0.019 | 0.6499 ± 0.0061 | 0.683 ± 0.017 | 0.696 ± 0.048 |
| HGVYSVLRFFFC | 0.664 ± 0.038 | 0.723 ± 0.021 | 0.659 ± 0.011 | 0.671 ± 0.03 | 0.329 ± 0.0035 | 0.365 ± 0.017 | 0.579 ± 0.023 | 0.453 ± 0.0086 |
| HINRTIWARYQV | 0.648 ± 0.069 | 0.742 ± 0.009 | 0.643 ± 0.033 | 0.75 ± 0.021 | 0.156 ± 0.019 | 0.174 ± 0.034 | 0.429 ± 0.032 | 0.362 ± 0.071 |
| HLGNTMIKKLIG | 0.695 ± 0.049 | 0.722 ± 0.046 | 0.621 ± 0.012 | 0.728 ± 0.035 | 0.405 ± 0.033 | 0.459 ± 0.064 | 0.6202 ± 0.0029 | 0.516 ± 0.023 |
| HLYPFPSLHFAF | 0.74 ± 0.043 | 0.791 ± 0.012 | 0.681 ± 0.013 | 0.778 ± 0.026 | 0.683 ± 0.025 | 0.688 ± 0.015 | 0.753 ± 0.019 | 0.799 ± 0.1 |
| HNQDKNVKYKIG | 0.672 ± 0.023 | 0.733 ± 0.034 | 0.625 ± 0.032 | 0.705 ± 0.021 | 0.248 ± 0.006 | 0.33 ± 0.039 | 0.536 ± 0.0064 | 0.41 ± 0.037 |
| HRDVISVVRNMS | 0.625 ± 0.016 | 0.70886 ± 0.00045 | 0.659 ± 0.058 | 0.715 ± 0.019 | 0.246 ± 0.022 | 0.333 ± 0.022 | 0.576 ± 0.012 | 0.43 ± 0.027 |
| HRHCVSSYQKVS | 0.662 ± 0.08 | 0.708 ± 0.013 | 0.648 ± 0.028 | 0.715 ± 0.0042 | 0.242 ± 0.0074 | 0.285 ± 0.027 | 0.556 ± 0.01 | 0.401 ± 0.054 |
| HRNILSIIIKNL | 0.541 ± 0.083 | 0.681 ± 0.027 | 0.642 ± 0.057 | 0.685 ± 0.029 | 0.0819 ± 0.039 | 0.0771 ± 0.015 | 0.1025 ± 0.00088 | 0.109 ± 0.046 |
| ICTHPCLRLRLN | 0.517 ± 0.039 | 0.662 ± 0.028 | 0.634 ± 0.012 | 0.732 ± 0.019 | 0.0875 ± 0.018 | 0.0887 ± 0.016 | 0.144 ± 0.055 | 0.165 ± 0.0032 |
| IDLISRVTVVAR | 0.394 ± 0.02 | 0.4267 ± 0.0012 | 0.268 ± 0.036 | 0.464 ± 0.0081 | 0.2236 ± 0.0022 | 0.288 ± 0.029 | 0.441 ± 0.01 | 0.4 ± 0.0047 |
| IDLVAFCTIFAL | 0.4606 ± 0.0013 | 0.494 ± 0.032 | 0.363 ± 0.03 | 0.516 ± 0.01 | 0.295 ± 0.0078 | 0.33 ± 0.02 | 0.469 ± 0.018 | 0.3975 ± 0.0032 |
| IERGLMLTLCVH | 0.0536 ± 0.009 | 0.0716 ± 0.028 | 0.172 ± 0.027 | 0.205 ± 0.0033 | 0.115 ± 0.013 | 0.156 ± 0.024 | 0.171 ± 0.0059 | 0.22 ± 0.014 |
| IERLRLRTRIIC | 0.469 ± 0.053 | 0.481 ± 0.049 | 0.423 ± 0.021 | 0.542 ± 0.0096 | 0.127 ± 0.015 | 0.131 ± 0.036 | 0.13441 ± 5e-06 | 0.2349 ± 0.0012 |

| Sequence | protein stability index (Saccharomyces cerevisiae [1]; [3]) | protein stability index (Saccharomyces cerevisiae [1]; [4]) | protein stability index (Saccharomyces cerevisiae [1]; [5]) | protein stability index (Saccharomyces cerevisiae [1]; [6]) | protein stability index (Saccharomyces cerevisiae [1]; [7]) | protein stability index (Saccharomyces cerevisiae [1]; [8]) | protein stability index (Saccharomyces cerevisiae [1]; [9]) | protein stability index (Saccharomyces cerevisiae [2]) |
| --- | --- | --- | --- | --- | --- | --- | --- | --- |
| IFIVLDFRCVSS | 0.302 ± 0.1 | 0.463 ± 0.024 | 0.256 ± 0.016 | 0.4371 ± 0.0012 | 0.243 ± 0.011 | 0.242 ± 0.043 | 0.381 ± 0.046 | 0.339 ± 0.016 |
| IFLLFPFSWRIF | 0.596 ± 0.042 | 0.6301 ± 0.0061 | 0.56 ± 0.039 | 0.694 ± 0.011 | 0.364 ± 0.027 | 0.376 ± 0.033 | 0.539 ± 0.036 | 0.446 ± 0.034 |
| IFLLLRRIIALS | 0.126 ± 0.0094 | 0.326 ± 0.044 | 0.411 ± 0.047 | 0.554 ± 0.023 | 0.0418 ± 0.017 | 0.0337 ± 0.0068 | 0.0499 ± 0.018 | 0.107 ± 0.12 |
| IFPSRSLLAASA | 0.403 ± 0.013 | 0.457 ± 0.062 | 0.339 ± 0.033 | 0.5192 ± 0.0019 | 0.317 ± 0.016 | 0.339 ± 0.025 | 0.48 ± 0.028 | 0.446 ± 0.0097 |
| IFSFRWVLPFWL | 0.611 ± 0.059 | 0.701 ± 0.008 | 0.6 ± 0.026 | 0.70093 ± 0.00061 | 0.2407 ± 0.00051 | 0.256 ± 0.04 | 0.424 ± 0.0043 | 0.365 ± 0.098 |
| IHCLSIVVHGLS | 0.527 ± 0.045 | 0.569 ± 0.047 | 0.471 ± 0.024 | 0.588 ± 0.0099 | 0.48 ± 0.016 | 0.475 ± 0.019 | 0.563 ± 0.027 | 0.499 ± 0.043 |
| IHIFIIFRVQWK | 0.176 ± 0.064 | 0.232 ± 0.036 | 0.179 ± 0.025 | 0.272 ± 0.018 | 0.163 ± 0.0023 | 0.156 ± 0.05 | 0.249 ± 0.03 | 0.227 ± 0.012 |
| IHRSPLTLPLLV | 0.526 ± 0.021 | 0.584 ± 0.023 | 0.461 ± 0.031 | 0.5726 ± 0.005 | 0.406 ± 0.014 | 0.435 ± 0.019 | 0.5383 ± 0.0043 | 0.468 ± 0.08 |
| IIFCVRVVGGDL | 0.449 ± 0.038 | 0.508 ± 0.0054 | 0.371 ± 0.029 | 0.5566 ± 0.00057 | 0.332 ± 0.0066 | 0.38 ± 0.018 | 0.5288 ± 0.0041 | 0.46 ± 0.04 |
| IIIRVTILCEQF | 0.135 ± 0.097 | 0.176 ± 0.0098 | 0.146 ± 0.02 | 0.258 ± 0.018 | 0.113 ± 0.0089 | 0.137 ± 0.0053 | 0.212 ± 0.011 | 0.241 ± 0.0066 |
| IILAIRLLVDTL | 0.0479 ± 0.026 | 0.179 ± 0.012 | 0.146 ± 0.025 | 0.266 ± 0.011 | 0.12 ± 0.0039 | 0.132 ± 0.025 | 0.238 ± 0.026 | 0.248 ± 0.021 |
| IILRPQYVHYFL | 0.532 ± 0.035 | 0.594 ± 0.027 | 0.497 ± 0.025 | 0.5597 ± 0.00026 | 0.482 ± 0.023 | 0.484 ± 0.025 | 0.5457 ± 0.00084 | 0.454 ± 0.018 |
| IIVLNIGSVIFC | 0.456 ± 0.063 | 0.5884 ± 0.002 | 0.397 ± 0.018 | 0.5716 ± 0.0053 | 0.387 ± 0.0076 | 0.4057 ± 0.0017 | 0.549 ± 0.028 | 0.4951 ± 0.0022 |
| IKSLLGCWHKHY | 0.679 ± 0.017 | 0.732 ± 0.0077 | 0.647 ± 0.031 | 0.7145 ± 0.0066 | 0.279 ± 0.028 | 0.303 ± 0.057 | 0.574 ± 0.04 | 0.479 ± 0.018 |
| ILCVEFFVSVSV | 0.0684 ± 0.008 | 0.2486 ± 0.0024 | 0.163 ± 0.025 | 0.277 ± 0.0064 | 0.136 ± 0.01 | 0.16 ± 0.0059 | 0.23 ± 0.021 | 0.218 ± 0.0027 |
| ILFVCVCVLHVG | 0.112 ± 0.0052 | 0.198 ± 0.012 | 0.17 ± 0.027 | 0.307 ± 0.0048 | 0.121 ± 0.013 | 0.141 ± 0.019 | 0.252 ± 0.021 | 0.242 ± 0.025 |
| INKRDARIHLLM | 0.658 ± 0.012 | 0.6975 ± 0.0064 | 0.623 ± 0.023 | 0.701 ± 0.00084 | 0.32 ± 0.034 | 0.382 ± 0.029 | 0.547 ± 0.0084 | 0.47 ± 0.0047 |
| IPHLNCCCCLVR | 0.527 ± 0.013 | 0.497 ± 0.023 | 0.334 ± 0.035 | 0.5878 ± 0.0048 | 0.272 ± 0.0053 | 0.328 ± 0.02 | 0.5503 ± 0.0019 | 0.442 ± 0.052 |
| IRDGPWKRVLVV | 0.599 ± 0.031 | 0.596 ± 0.01 | 0.48 ± 0.028 | 0.642 ± 0.0055 | 0.125 ± 0.0086 | 0.157 ± 0.015 | 0.245 ± 0.0076 | 0.348 ± 0.051 |
